The results in this text go back to article doi:10.1101/2020.01.19.911941 (bioRxiv, 2020).

The target of one test is sPD-1 V1 Fc (human) (UniProt Q15116). Nature of the test: SPR. On the technique in general: Surface plasmon resonance follows binding to a sensor surface in real time, without labels.
In test [1] the target is mouse PD-L1 in wild-type parental MC38 cells (mouse (endogenous in MC38), UniProt Q9EP73 19-290). Nature of the test: flow cytometry on cells. A general note: A flow cytometer gives signals particle by particle.
Chain of mouse PD-L1 in wild-type parental MC38 cells (Q9EP73 19-290): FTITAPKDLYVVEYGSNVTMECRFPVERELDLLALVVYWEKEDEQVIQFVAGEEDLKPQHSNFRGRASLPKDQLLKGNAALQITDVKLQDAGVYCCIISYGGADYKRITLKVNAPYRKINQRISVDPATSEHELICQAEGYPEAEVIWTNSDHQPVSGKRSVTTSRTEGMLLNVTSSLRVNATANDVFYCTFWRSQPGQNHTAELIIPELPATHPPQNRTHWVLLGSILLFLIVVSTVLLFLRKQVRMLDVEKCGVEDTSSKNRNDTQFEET

B1: human PD-L2 (#10292-H08H, SinoBiological) (ligand)
chain: LFTVTVPKELYIIEHGSNVTLECNFDTGSHVNLGAITASLQKVENDTSPHRERATLLEEQLPLGKASFHIPQVQVRDEGQYQCIIIYGVAWDYKYLTLKVKASYRKINTHILKVPETDEVELTCQATGYPLAEVSWPNVSVPANTSHSRTPEGLYQVTSVLRLKPPPGRNFSCVFWNTHVRELTLASIDLQSQMEPRTHPT
In the case of B1, in the test with sPD-1 V1 Fc (human), the fold improvement in binding affinity over wild type sPD-1 is 200 fold.

B2: sPD-1 V2 Fc (Fc fusion)
chain: LDSPDRPWNPPTFSPALLVVTEGDNATFTCSFSNTSEGFVLNWYRMSPSNQTDKLAAFPEDRGQLGQDCRFRVTQLPNGRDFHMSVVRARRNDSGTYLCSAIVLAPKIQIKESLRVELRVTERRAEVPTAHPSPSPRPAGQFQTLV
Consider B2, for which the “fold increase in binding signal over wild-type sPD-1” value in test [1] is ~4 fold.
